From US6699842B1, “Dominant negative deletion mutants of C-jun and their use in the prevention and treatment of cancer” (The United States of America as represented by the …, priority 1994, dated 2004)

Columns and labels:
[1] = tested on: AP-1; experiment: CAT assay with stromelysin promoter reporter P750TRCAT (AP-1 dependent) in JB6 P+ Cl 41 cells; format: cell-based, mouse; details: 10 ng/ml, eight hours
Source text: The plasmid constructs used in the following examples were as follows: P750TRCAT is a CAT reporter construct containing 750 bp of the rat stromelysin promoter driving the heterogolous gene chloramphenicol acetyl-transferase (CAT). This construct contains an AP-1 binding sequence at position −70 (Matrisian, L. M. et al. (1991) Am. J. Medic. Sci., 302: 157-162, Kerr, L. D. et al. (1988) Science., 242: 1424-1427, McDonnell, S. E. et al. (1990) Mol. Cell. Biol. 105 4284-4293). The mTRE-CAT reporter is a site-directed mutant with 2 point mutations in the AP-1 site (Matrisian, L. M. et al. (1991) Am. J. Medic. Sci., 302: 157-162) and the mPEA3-CAT reporter is a site-directed mutant in which point mutations in each of the PEA3 sites at position −208 to −200 and −191 to −199 of the stromelysin promoter were introduced using a protocol provided with the site-directed mutagenesis kit of Amersham Corp. (Arlington Heights, Ill.) and an oligonucleotide having SEQ ID NO.:1 GCAAGAAGCATTTCTTGG.
In brief, JB6 Cl 41 (P^+) cells transfected for 4-5 hours using a standard calcium phosphate transfection procedure (Sambrook, J. et al. (1989) “Molecular Cloning, A Laboratory Manual” Cold Spring Harbor Laboratory Press, Cold Spring Harbor, N.Y.) with 10 μg of one of three CAT reporter plasmid DNAs, P750TRCAT, mTRE-CAT or mPEA3-CAT and 10 μg of sheared genomic DNA isolated from Cl 41 cells were then changed to medium containing 2% fetal calf serum and twenty-four to forty-two hours later, were treated with either 0.1% of DMSO, 10 ng/ml of TPA or 10 ng/ml EGF for eight hours prior to preparation of total cell extracts. CAT enzyme activity was assayed using a diffusion-based CAT assay according to the protocol provided by the manufacturers (New England Nuclear, Del.). The results are expressed as the rate of accumulation of [^14C]-acetylated product relative to solvent controls (DMSO).
In order to determine whether TPA-induced CAT activity in JB6 P^+ cells is capable of being abolished, TPA induced CAT activity was measured in the presence of the known AP-1 inhibitors retinoic acid (RA) and fluocinolone acetonide (FA). In brief, JB6 P^+ Cl 41 cells were transfected with 10 μg of P750TRCAT and 10 μg of sheared genomic DNA from Cl 41 cells as in Example 1. […] As before, the results are expressed as the rate of accumulation of ^14C-acetylated product relative to solvent controls. […]

[2] = tested on: c-Jun; experiment: immunoprecipitation and densitometry of c-Jun protein in stable JB6 transfectants; format: cell-based, mouse; details: 10 ng/ml, fifteen hours, TAM67 or Neo-only transfectants
Method: Three TAM67 clonal transfectants (M4, M3, M6) and one neo-only clonal transfectant (N1) were treated for fifteen hours with either 10 ng/ml TPA (T), 10 ng/ml EGF (E), or 0.1% DMSO (D) prior to metabolic labelling for two hours with 0.2 mCi/ml ^35S -methionine (Amersham, Rockford, Ill.) (Sun, Y. et al. (1993) Mol. Carcinogenesis, 8: 49-57). Cellular lysates were then collected and immunoprecipitations using polyclonal rabbit c-jun antibody (AB-1 antibody, Oncogene Science) were carried out overnite at 4° C. (Sun et al. (1993)). These immunoprecipitates were then analyzed by electrophoresis on 12.5% SDS polyacrylamide gels and these gels are shown in FIG. 4.

B1: epidermal growth factor (protein, UniProt P01133 23-1207, looked up)
Pro-epidermal growth factor: PQHWSCPEGTLAGNGNSTCVGPAPFLIFSHGNSIFRIDTEGTNYEQLVVDAGVSVIMDFHYNEKRIYWVDLERQLLQRVFLNGSRQERVCNIEKNVSGMAINWINEEVIWSNQQEGIITVTDMKGNNSHILLSALKYPANVAVDPVERFIFWSSEVAGSLYRADLDGVGVKALLETSEKITAVSLDVLDKRLFWIQYNREGSNSLICSCDYDGGSVHISKHPTQHNLFAMSLFGDRIFYSTWKMKTIWIANKHTGKDMVRINLHSSFVPLGELKVVHPLAQPKAEDDTWEPEQKLCKLRKGNCSSTVCGQDLQSHLCMCAEGYALSRDRKYCEDVNECAFWNHGCTLGCKNTPGSYYCTCPVGFVLLPDGKRCHQLVSCPRNVSECSHDCVLTSEGPLCFCPEGSVLERDGKTCSGCSSPDNGGCSQLCVPLSPVSWECDCFPGYDLQLDEKSCAASGPQPFLLFANSQDIRHMHFDGTDYGTLLSQQMGMVYALDHDPVENKIYFAHTALKWIERANMDGSQRERLIEEGVDVPEGLAVDWIGRRFYWTDRGKSLIGRSDLNGKRSKIITKENISQPRGIAVHPMAKRLFWTDTGINPRIESSSLQGLGRLVIASSDLIWPSGITIDFLTDKLYWCDAKQSVIEMANLDGSKRRRLTQNDVGHPFAVAVFEDYVWFSDWAMPSVMRVNKRTGKDRVRLQGSMLKPSSLVVVHPLAKPGADPCLYQNGGCEHICKKRLGTAWCSCREGFMKASDGKTCLALDGHQLLAGGEVDLKNQVTPLDILSKTRVSEDNITESQHMLVAEIMVSDQDDCAPVGCSMYARCISEGEDATCQCLKGFAGDGKLCSDIDECEMGVPVCPPASSKCINTEGGYVCRCSEGYQGDGIHCLDIDECQLGEHSCGENASCTNTEGGYTCMCAGRLSEPGLICPDSTPPPHLREDDHHYSVRNSDSECPLSHDGYCLHDGVCMYIEALDKYACNCVVGYIGERCQYRDLKWWELRHAGHGQQQKVIVVAVCVVVLVMLLLLSLWGAHYYRTQKLLSKNPKNPYEESSRDVRSRRPADTEDGMSSCPQPWFVVIKEHQDLKNGGQPVAGEDGQAADGSMQPTSWRQEPQLCGMGTEQGCWIPVSSDKGSCPQVMERSFHMPSYGTQTLEGGVEKPHSLLSANPLWQQRALDPPHQMELTQ
modifications: Pro-epidermal growth factor
notes: tumor promoter, peptide growth factor
- increase in AP-1 dependent CAT activity in neo-only transfectants ([1]; N1-N3 transfectants, P750TRCAT): three to four fold increases
- CAT activity relative to uninduced cells, P750TRCAT reporter ([1]; P750TRCAT-transfected JB6 P+ Cl 41 cells): about 2 fold
- CAT activity relative to uninduced cells, mPEA3-CAT reporter ([1]; mPEA3-CAT-transfected JB6 P+ Cl 41 cells (PEA3 sites mutated)): about 2 fold
- inducibility of CAT activity, mTRE-CAT reporter ([1]; mTRE-CAT-transfected cells (AP-1 binding site mutated)): loss of inducibility
- c-Jun protein levels (43 kDa band, densitometric analysis) [2]: no significant differences
